From article PMC11375168 (Nature Communications, 2024)

Molecular target: the molecule itself
Experiment: cryo-EM structure

B1: Mycobacterium tuberculosis EfpA (MtEfpA), full length, with C-terminal GFP and Strep-Tag II (natural protein)
chain: MTALNDTERAVRNWTAGRPHRPAPMRPPRSEETASERPSRYYPTWLPSRSFIAAVIAIGGMQLLATMDSTVAIVALPKIQNELSLSDAGRSWVITAYVLTFGGLMLLGGRLGDTIGRKRTFIVGVALFTISSVLCAVAWDEATLVIARLSQGVGSAIASPTGLALVATTFPKGPARNAATAVFAAMTAIGSVMGLVVGGALTEVSWRWAFLVNVPIGLVMIYLARTALRETNKERMKLDATGAILATLACTAAVFAFSIGPEKGWMSGITIGSGLVALAAAVAFVIVERTAENPVVPFHLFRDRNRLVTFSAILLAGGVMFSLTVCIGLYVQDILGYSALRAGVGFIPFVIAMGIGLGVSSQLVSRFSPRVLTIGGGYLLFGAMLYGSFFMHRGVPYFPNLVMPIVVGGIGIGMAVVPLTLSAIAGVGFDQIGPVSAIALMLQSLGGPLVLAVIQAVITSRTLYLGGTTGPVKFMNDVQLAALDHAYTYGLLWVAGAAIIVGGMALFIGYTPQQVAHAQEVKEAIDAGEL
  stoichiometry N: 2
